This experiment deals with soluble Aβ oligomers (human). The experiment can be described thus: cell-based or functional assay.

human IgG isotype control antibody registered a Mean (Aβ spots per neuron), Isotype Control 1:50 (Aβ spots per neuron) of 58.7.

For the origin of these results see patent US20260226143A1.
